From patent publication US20120058906A1

Experiments:
[1] = biological target: rHuman CD44/Fc Chimera, CF (R&D Systems Cat#3660-CD) (human) (UniProt P16070); assay: MSD ECL multi-spot plate; Fab 230 nM; blank spot 1656
[2] = biological target: rHuman EGF R/Fc Chimera, CF (R&D Systems Cat#344-ER) (human) (UniProt P00533); assay: as above
[3] = biological target: rHuman ErbB2/Fc Chimera, CF (R&D Systems Cat#1129-ER) (human) (UniProt P04626); assay: as above
[4] = biological target: rHuman Erythropoietin R/Fc Chimera, CF (R&D Systems Cat#963-ER) (human) (UniProt P19235); assay: as above
[5] = biological target: rHuman HGF R/c-MET/Fc Chimera, CF (R&D Systems Cat#358-MT/CF) (human) (UniProt P08581); assay: as above
[6] = biological target: rHuman IGF-1 sR (IGF-1 sR), CF (R&D Systems Cat#391-GR) (human) (UniProt P08069); assay: as above
[7] = biological target: rHuman CD44/Fc Chimera, CF (R&D Systems Cat#3660-CD) (human) (UniProt P16070); assay: MSD ECL multi-spot plate; Fab 57.5 nM; blank spot 954
[8] = biological target: rHuman EGF R/Fc Chimera, CF (R&D Systems Cat#344-ER) (human) (UniProt P00533); assay: as above
[9] = biological target: rHuman ErbB2/Fc Chimera, CF (R&D Systems Cat#1129-ER) (human) (UniProt P04626); assay: as above
[10] = biological target: rHuman Erythropoietin R/Fc Chimera, CF (R&D Systems Cat#963-ER) (human) (UniProt P19235); assay: as above
[11] = biological target: rHuman HGF R/c-MET/Fc Chimera, CF (R&D Systems Cat#358-MT/CF) (human) (UniProt P08581); assay: as above
[12] = biological target: rHuman IGF-1 sR (IGF-1 sR), CF (R&D Systems Cat#391-GR) (human) (UniProt P08069); assay: as above
[13] = biological target: rHuman CD44/Fc Chimera, CF (R&D Systems Cat#3660-CD) (human) (UniProt P16070); assay: MSD ECL multi-spot plate; Fab 920 nM; blank spot 4082
[14] = biological target: rHuman EGF R/Fc Chimera, CF (R&D Systems Cat#344-ER) (human) (UniProt P00533); assay: as above
[15] = biological target: rHuman ErbB2/Fc Chimera, CF (R&D Systems Cat#1129-ER) (human) (UniProt P04626); assay: as above
[16] = biological target: rHuman Erythropoietin R/Fc Chimera, CF (R&D Systems Cat#963-ER) (human) (UniProt P19235); assay: as above
[17] = biological target: rHuman HGF R/c-MET/Fc Chimera, CF (R&D Systems Cat#358-MT/CF) (human) (UniProt P08581); assay: as above
[18] = biological target: rHuman IGF-1 sR (IGF-1 sR), CF (R&D Systems Cat#391-GR) (human) (UniProt P08069); assay: as above
[19] = biological target: rHuman CD44/Fc Chimera, CF (R&D Systems Cat#3660-CD) (human) (UniProt P16070); assay: MSD ECL multi-spot plate; Fab 14.375 nM; blank spot 738
[20] = biological target: rHuman EGF R/Fc Chimera, CF (R&D Systems Cat#344-ER) (human) (UniProt P00533); assay: as above
[21] = biological target: rHuman ErbB2/Fc Chimera, CF (R&D Systems Cat#1129-ER) (human) (UniProt P04626); assay: as above
[22] = biological target: rHuman Erythropoietin R/Fc Chimera, CF (R&D Systems Cat#963-ER) (human) (UniProt P19235); assay: as above
[23] = biological target: rHuman HGF R/c-MET/Fc Chimera, CF (R&D Systems Cat#358-MT/CF) (human) (UniProt P08581); assay: as above
[24] = biological target: rHuman IGF-1 sR (IGF-1 sR), CF (R&D Systems Cat#391-GR) (human) (UniProt P08069); assay: as above
[25] = biological target: rHuman EGF R/Fc Chimera, CF (R&D Systems Cat#344-ER) (human) (UniProt P00533); assay: MSD ECL multi-spot assay, antigen spotted on plate, Fab 0.93 uM; blank spot 4760

Chain of rHuman Erythropoietin R/Fc Chimera, CF (R&D Systems Cat#963-ER) (human) (P19235 25-250, change not shown): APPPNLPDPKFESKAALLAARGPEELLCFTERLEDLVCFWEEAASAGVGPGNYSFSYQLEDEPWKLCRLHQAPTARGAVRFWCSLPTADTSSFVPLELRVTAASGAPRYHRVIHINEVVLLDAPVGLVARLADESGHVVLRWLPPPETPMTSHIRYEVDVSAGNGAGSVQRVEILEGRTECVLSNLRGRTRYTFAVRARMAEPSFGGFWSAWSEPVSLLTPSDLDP

ECL signal [1]: 3820 ECL signal
ECL signal [2]: 5720 ECL signal
ECL signal [3]: 4080 ECL signal
ECL signal [4]: 6950 ECL signal
ECL signal [5]: 3930 ECL signal
ECL signal [6]: 4760 ECL signal
ECL signal [7]: 2310 ECL signal
ECL signal [8]: 3860 ECL signal
ECL signal [9]: 2450 ECL signal
ECL signal [10]: 4040 ECL signal
ECL signal [11]: 2300 ECL signal
ECL signal [12]: 2830 ECL signal
ECL signal [13]: 9700 ECL signal
ECL signal [14]: 13400 ECL signal
ECL signal [15]: 10900 ECL signal
ECL signal [16]: 16400 ECL signal
ECL signal [17]: 10700 ECL signal
ECL signal [18]: 10200 ECL signal
ECL signal [19]: 1490 ECL signal
ECL signal [20]: 2670 ECL signal
ECL signal [21]: 1590 ECL signal
ECL signal [22]: 2720 ECL signal
ECL signal [23]: 1600 ECL signal
ECL signal [24]: 1750 ECL signal
ECL signal [25]: 15600
Substance: Fab VH1-46_IGHD3-10*01_IGHJ4*01 & L12_IGKJ1*01
